Experimental data: patent US20200369765A1 (INNATE PHARMA, published 2020)

Legend:
Siglec-7 Fc protein [1] = target: T1, Siglec-7 Fc protein (human); test: ELISA, blocking: Siglec-7 Fc captured on protein A, mAb dilution series, then biotinylated polymer Sia2 (6'-Sialyllactose-PAA-biotin), streptavidin-peroxidase (top panel)
T1 construct: Produced in CHO cells; also called human Siglec-7 Fc
Method: (§1) Blocking of the interaction between Siglec-7 and -9 and sialylated ligands by anti Siglec-7/9 antibodies was tested on ELISA assays. Siglec proteins were Siglec-7 human Fc and Siglec-9 Human Fc recombinant proteins, and ligands were biotinylated polymers with sialylated trisaccharides (Neu5Aca2-3Galb1-4GcNAcb-PAA-biotin Glycotech #01-077 referred to as “Sia1” and 6′-Sialyllactose-PAA-biotin Glycotech #01-039 (referred to as “Sia2”). Briefly, Protein A was coated on ELISA plates over night at 4° C. After 3 washes and saturation, Siglec-7 Fc and Siglec-9 Fc were added at 0.8 μg/well at RT for 1H30. After 3 washes, mAbs were added at 20 ug/ml and a series of dilution of 1:5. After 3 washes, biotinylated sialylated polymers were added for 3 hours at room temperature. After 3 washes, Streptavidin-Peroxidase (Beckman) was added at 1:1000. […] The absorbance was read at 450 nm.

Human Siglec-9 mutant M8 = target: T2, Human Siglec-9 mutant M8 (human, UniProt Q9Y336 18-463); test: flow cytometry, HEK293T transfectants; '-' indicates full loss of binding
T2 construct: Expressed on HEK293T cells; also called Mutant 8
T2 sequence (Q9Y336 other isoform, or with tags, fused parts or gaps mutant): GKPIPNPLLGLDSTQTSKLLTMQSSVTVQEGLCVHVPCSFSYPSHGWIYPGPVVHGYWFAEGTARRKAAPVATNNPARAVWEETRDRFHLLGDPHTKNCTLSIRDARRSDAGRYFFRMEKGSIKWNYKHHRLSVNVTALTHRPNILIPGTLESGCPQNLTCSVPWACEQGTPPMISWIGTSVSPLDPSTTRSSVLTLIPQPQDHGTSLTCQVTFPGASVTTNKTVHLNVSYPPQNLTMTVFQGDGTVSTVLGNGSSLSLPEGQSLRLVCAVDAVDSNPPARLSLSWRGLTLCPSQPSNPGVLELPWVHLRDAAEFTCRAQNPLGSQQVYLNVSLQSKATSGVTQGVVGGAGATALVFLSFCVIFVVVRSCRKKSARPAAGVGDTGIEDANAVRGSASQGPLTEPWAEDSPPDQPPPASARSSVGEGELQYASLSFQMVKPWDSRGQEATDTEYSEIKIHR

[2] = target: T3, Human Siglec-9 mutant M16 (human, UniProt Q9Y336 18-463); test: as above
T3 construct: Expressed on HEK293T cells; also called Mutant 16
T3 sequence (Q9Y336 other isoform, or with tags, fused parts or gaps mutant): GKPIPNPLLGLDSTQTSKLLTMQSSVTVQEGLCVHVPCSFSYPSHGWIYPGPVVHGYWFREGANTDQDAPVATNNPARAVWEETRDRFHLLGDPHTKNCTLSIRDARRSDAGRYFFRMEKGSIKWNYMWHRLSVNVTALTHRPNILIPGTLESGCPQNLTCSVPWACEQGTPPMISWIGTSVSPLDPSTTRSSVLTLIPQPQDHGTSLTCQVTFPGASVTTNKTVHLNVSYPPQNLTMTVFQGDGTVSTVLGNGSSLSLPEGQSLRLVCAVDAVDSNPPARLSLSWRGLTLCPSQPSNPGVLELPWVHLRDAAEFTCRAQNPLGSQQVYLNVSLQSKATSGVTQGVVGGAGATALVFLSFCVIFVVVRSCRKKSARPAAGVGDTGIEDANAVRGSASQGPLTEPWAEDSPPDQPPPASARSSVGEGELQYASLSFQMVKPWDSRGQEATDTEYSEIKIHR

Human Siglec-9 = target: T4, Human Siglec-9 (human, UniProt Q9Y336 18-463); test: flow cytometry, CHO Siglec-9 cells, mean n = 2
T4 construct: On transfected CHO cells; also on YTS and KHYG-1 transfectants, primary NK cells and moDC; also called huSiglec-9; CD329
T4 sequence (Q9Y336 18-463): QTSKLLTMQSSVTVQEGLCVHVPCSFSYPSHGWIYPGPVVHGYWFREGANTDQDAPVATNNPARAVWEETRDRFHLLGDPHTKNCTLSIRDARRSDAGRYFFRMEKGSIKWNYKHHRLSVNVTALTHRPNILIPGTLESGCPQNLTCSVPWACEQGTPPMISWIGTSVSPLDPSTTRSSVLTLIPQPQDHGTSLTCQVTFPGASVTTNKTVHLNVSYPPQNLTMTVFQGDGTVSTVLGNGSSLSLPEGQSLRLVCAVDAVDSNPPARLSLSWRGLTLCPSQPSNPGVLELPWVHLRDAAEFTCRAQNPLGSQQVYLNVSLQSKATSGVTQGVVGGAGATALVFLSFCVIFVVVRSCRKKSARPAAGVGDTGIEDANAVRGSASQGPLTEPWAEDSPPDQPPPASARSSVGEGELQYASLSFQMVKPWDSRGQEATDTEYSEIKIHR
Method: Binding of humanized antibodies was tested on CHO cells transfected with human Siglec-9, in a titration experiment by flow cytometry. Cells were incubated 90 minutes at 37° C. in Staining Buffer (SB) with primary antibodies at 10 ug/ml and a series of dilution of 1:10. They were washed three times with SB, then incubated 30 minutes with a goat F(ab′)² Anti-human IgG (Fc) PE. EC₅₀ values (μg/ml) for Siglec-9 expressing cells are shown below.

[3] = target: T5, Human Siglec-9 mutant M11 (human, UniProt Q9Y336 18-463); test: flow cytometry, HEK293T transfectants; '-' indicates full loss of binding
T5 construct: Expressed on HEK293T cells; also called Mutant 11
T5 sequence (Q9Y336 other isoform, or with tags, fused parts or gaps mutant): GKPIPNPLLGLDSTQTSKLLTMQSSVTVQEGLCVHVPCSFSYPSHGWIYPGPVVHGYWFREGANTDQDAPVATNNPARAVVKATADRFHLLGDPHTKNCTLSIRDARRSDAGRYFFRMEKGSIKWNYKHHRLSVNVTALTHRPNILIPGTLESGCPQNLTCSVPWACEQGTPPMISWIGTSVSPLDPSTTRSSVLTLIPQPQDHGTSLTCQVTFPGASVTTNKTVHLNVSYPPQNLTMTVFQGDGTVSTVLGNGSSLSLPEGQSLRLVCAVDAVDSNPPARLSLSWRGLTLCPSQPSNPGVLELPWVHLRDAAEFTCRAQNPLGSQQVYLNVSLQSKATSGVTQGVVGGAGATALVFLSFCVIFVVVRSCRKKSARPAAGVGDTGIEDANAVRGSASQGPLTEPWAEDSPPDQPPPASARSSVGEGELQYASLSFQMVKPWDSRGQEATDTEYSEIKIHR

[4] = target: T6, Human Siglec-9 mutant M10 (human, UniProt Q9Y336 18-463); test: as above
T6 construct: Expressed on HEK293T cells; also called Mutant 10
T6 sequence (Q9Y336 other isoform, or with tags, fused parts or gaps mutant): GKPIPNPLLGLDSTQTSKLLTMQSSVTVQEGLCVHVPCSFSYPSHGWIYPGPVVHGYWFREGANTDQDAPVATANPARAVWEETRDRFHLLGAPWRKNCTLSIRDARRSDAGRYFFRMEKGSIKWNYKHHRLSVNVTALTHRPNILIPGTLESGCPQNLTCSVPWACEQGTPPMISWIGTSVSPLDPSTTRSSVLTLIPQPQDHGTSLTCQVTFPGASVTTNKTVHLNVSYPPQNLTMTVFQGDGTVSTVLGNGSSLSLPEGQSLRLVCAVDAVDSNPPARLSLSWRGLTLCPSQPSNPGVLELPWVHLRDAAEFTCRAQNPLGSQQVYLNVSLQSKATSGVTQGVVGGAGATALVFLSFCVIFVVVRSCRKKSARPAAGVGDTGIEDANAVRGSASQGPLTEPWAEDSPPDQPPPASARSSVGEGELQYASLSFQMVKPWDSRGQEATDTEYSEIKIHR

Human Siglec-9 mutant M9 = target: T7, Human Siglec-9 mutant M9 (human, UniProt Q9Y336 18-463); test: as above
T7 construct: Expressed on HEK293T cells; also called Mutant 9
T7 sequence (Q9Y336 other isoform, or with tags, fused parts or gaps mutant): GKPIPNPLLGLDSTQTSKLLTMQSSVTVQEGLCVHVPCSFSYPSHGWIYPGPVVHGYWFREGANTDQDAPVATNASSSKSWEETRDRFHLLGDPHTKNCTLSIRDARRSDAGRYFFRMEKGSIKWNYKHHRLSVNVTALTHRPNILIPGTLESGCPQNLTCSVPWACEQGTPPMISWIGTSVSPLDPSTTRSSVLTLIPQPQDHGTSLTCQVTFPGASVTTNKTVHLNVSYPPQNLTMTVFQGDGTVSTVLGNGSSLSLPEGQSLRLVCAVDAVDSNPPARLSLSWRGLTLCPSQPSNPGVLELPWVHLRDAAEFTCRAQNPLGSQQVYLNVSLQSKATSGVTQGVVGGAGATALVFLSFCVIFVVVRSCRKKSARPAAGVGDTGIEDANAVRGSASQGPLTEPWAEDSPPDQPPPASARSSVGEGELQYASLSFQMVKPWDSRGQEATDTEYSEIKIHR

Siglec-9 Fc protein [5] = target: T8, Siglec-9 Fc protein (human); test: ELISA, blocking: Siglec-9 Fc captured on protein A, mAb dilution series, then biotinylated polymer Sia1, streptavidin-peroxidase (top panel); weak partial inhibition
T8 construct: Produced in CHO cells; also called human Siglec-9 Fc
T8 sequence (chain, as listed by the source limits assumed): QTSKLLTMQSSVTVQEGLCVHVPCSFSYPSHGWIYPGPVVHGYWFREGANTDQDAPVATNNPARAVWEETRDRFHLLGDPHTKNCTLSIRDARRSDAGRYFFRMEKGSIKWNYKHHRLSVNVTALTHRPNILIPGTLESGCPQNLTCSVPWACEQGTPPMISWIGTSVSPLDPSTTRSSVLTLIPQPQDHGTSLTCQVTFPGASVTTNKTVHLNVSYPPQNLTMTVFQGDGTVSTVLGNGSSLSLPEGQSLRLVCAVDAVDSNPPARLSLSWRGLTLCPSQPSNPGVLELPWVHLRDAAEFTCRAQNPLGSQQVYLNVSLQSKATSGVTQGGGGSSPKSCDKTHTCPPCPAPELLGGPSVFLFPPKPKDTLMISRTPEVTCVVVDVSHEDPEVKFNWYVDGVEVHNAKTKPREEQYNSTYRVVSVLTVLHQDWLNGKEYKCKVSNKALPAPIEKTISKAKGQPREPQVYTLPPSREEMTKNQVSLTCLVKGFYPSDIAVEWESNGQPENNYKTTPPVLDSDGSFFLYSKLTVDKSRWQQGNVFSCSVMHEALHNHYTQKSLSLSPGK
Method: as §1

Siglec-9 Fc protein [6] = target: T8, Siglec-9 Fc protein; test: ELISA, blocking: Siglec-9 Fc captured on protein A, mAb dilution series, then biotinylated polymer Sia2, streptavidin-peroxidase (bottom panel)
Method: as §1

Siglec-7 Fc protein [7] = target: T1, Siglec-7 Fc protein; test: ELISA, blocking: Siglec-7 Fc captured on protein A, mAb dilution series, then biotinylated polymer Sia2, streptavidin-peroxidase (bottom panel); partial inhibition
Method: as §1

Human Siglec-9 mutant M6 = target: T9, Human Siglec-9 mutant M6 (human, UniProt Q9Y336 18-463); test: flow cytometry, HEK293T transfectants; '-' indicates full loss of binding
T9 construct: Expressed on HEK293T cells; also called Mutant 6
T9 sequence (Q9Y336 other isoform, or with tags, fused parts or gaps mutant): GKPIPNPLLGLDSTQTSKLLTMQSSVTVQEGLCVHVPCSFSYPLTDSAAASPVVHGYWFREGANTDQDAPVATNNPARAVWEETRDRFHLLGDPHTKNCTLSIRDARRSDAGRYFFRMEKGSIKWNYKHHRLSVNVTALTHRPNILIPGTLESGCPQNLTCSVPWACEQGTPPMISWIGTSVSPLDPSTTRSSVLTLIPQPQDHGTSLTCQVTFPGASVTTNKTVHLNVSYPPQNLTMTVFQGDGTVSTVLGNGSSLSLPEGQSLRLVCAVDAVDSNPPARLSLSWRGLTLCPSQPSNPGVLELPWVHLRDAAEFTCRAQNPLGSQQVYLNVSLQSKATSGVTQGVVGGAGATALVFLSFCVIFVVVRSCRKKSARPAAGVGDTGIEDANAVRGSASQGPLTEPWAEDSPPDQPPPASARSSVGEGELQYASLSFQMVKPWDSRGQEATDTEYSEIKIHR

T1 sequence (chain, as listed by the source limits assumed): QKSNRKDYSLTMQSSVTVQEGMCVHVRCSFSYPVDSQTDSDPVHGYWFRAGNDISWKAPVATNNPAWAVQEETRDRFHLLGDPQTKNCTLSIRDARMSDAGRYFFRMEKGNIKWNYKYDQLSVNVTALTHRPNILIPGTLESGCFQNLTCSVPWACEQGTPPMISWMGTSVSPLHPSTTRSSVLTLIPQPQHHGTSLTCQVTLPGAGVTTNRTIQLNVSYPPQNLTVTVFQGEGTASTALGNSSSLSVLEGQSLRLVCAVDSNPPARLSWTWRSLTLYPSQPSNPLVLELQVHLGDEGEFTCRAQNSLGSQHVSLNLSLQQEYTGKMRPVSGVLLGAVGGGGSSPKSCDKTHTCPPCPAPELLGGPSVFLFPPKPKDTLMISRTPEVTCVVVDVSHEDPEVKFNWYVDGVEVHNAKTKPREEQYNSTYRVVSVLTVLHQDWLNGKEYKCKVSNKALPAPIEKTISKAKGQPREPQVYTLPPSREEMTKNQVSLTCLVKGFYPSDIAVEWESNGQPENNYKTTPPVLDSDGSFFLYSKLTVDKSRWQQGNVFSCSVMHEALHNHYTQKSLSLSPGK

| Binder | binding result [3] | binding result [4] | binding result (Human Siglec-9 mutant M9) | further results |
| --- | --- | --- | --- | --- |
| mAb6 (antibody, human IgG1, V domains shown) VH: EIQLQQSGPELEKPGASVKISCKASGYSFSDYNMNWVKQSNGKSLEWIGNIDPYYGATSYNQRFKGKATLTVDKSSSTAYMQLKSLTSEDSAVYYCARGDSLFAYWGQGTLVTVSA VL: DIVMTQSQEFMSTSLGDRVSVTCKASQNVGTNVAWYQQKPGQSPKALLYSASSRYSGVPDRFTGSGSGTDFTLTINNMQSEDLAEYFCQQYITYPYTFGGGTKLEIK | – | – | – | binding result (Siglec-7 Fc protein [1]): binds |
| mAbC (antibody, human IgG1, V domains shown) VH: QIQLVQSGPELKKPGETVKISCKASGYTFTNYEMNWVKEAPGKGLKWMGWINTYTGESTYADDFKGRFAFSLETSASTVYLQINNLKDEDVATYFCVRDDYGRSYGFAYWGQGTLVTVSA VL: NIVLTQSPASLTVSLGQRANISCRASESVDSYGNSFMHWYQQKPGQPPKLLIYLASKLESGVPARFSGSGSRTDFTLTIDPVETDDAATYYCHQNNEDPPWTFGGGTKLEIK | – | – | – | binding result (Human Siglec-9 mutant M8): no binding |
| mAbA (antibody, human IgG1, V domains shown) VH: QVQLQQPGAELVKPGSPVKLSCKASYFTFTSYWMHWVRQRPGQGLEWIGEINPSNGHTNYNEKFESKATLTVDRSSSTAYMQLSSLTSEDSAVFYCANGVESYDFDDALDYWGQGTSVTVSS VL: DIQMTQTTSSLSASLGDRVTISCRASQDINNYLNWYQQKPDGTIKLLIYYTSRLHSGVPSRFSGSGSGTDYSLTINNLEQEDIATYFCQQGNTLPFTFGGGTKLEIK | – | – | – | binding result [2]: no binding; EC50 (Human Siglec-9): 0.03 µg/mL |
| mAbB (antibody, human IgG1, V domains shown) VH: QVQLQQPGAELVKPGASVKLSCKASVYTFTSYWMHWVKQRPGQGLEWIGEINPSNGHTNYNEKFKTKAKLTVDKSSSTAYMQLSSLTSEDSAVYFCANGVETYDFDDAMDYWGQGTSVTVSS VL: DIQMTQTTSSLSASLGDRVTISCRASQDINNYLNWYQQKPDGTVKLLIYFTSRLHSGVPSRFSGSGSGTDYSLTISNLEQEDIATYFCQQGDTFPFTFGGGTKLEIK | – | – | – | binding result [2]: no binding |
| mAbE (antibody, human IgG1, V domains shown) VH: DVQLVESGGGLVQPGGSRKLSCAASGFTFSTFGMHWVRQAPEKGLEWVAYISSGSNAIYYADTVKGRFTISRDNPKNTLFLQMTSLRSEDTAMYYCASPGYGAWFAYWGQGTLVTVSA VL: ENVLTQSPAIMSASPGEKVTMTCRASSSVSSAYLHWYQQKSGASPKLWIYSTSNLASGVPARFSGSGSGTSYSLTISSVEAEDAATYYCQQYSAYPYTFGGGTKLEIK | no binding | no binding | no binding | – |
| mAb1 (antibody, human IgG1, V domains shown) VH: DVQLQESGPGLVKPSQSLSLTCTVTGYSITGGFAWNWIRQFPGNTLEWMGYIGYGGSTSYNPSLNSRISITRDTSKNHFFLQFNSVTTDDSATYYCARGDYLFAYWGQGTLVTVSA VL: DIVMTQSHKFMSTSVGDRVSITCKASQDVNTAVAWYQQKPGQSPKLLIYSASYRYTGVPDRFTGSGSGTDFTFTISSVQAEDLAVYYCQQHYSTPRTFGGGTKLEIK | no binding | no binding | no binding | IC50 (read off the curve) (Siglec-9 Fc protein [5]): ~2 µg/mL; IC50 (read off the curve) (Siglec-9 Fc protein [6]): ~1 µg/mL; IC50 (read off the curve) (Siglec-7 Fc protein [7]): ~4 µg/mL |
| mAbD (antibody, human IgG1, V domains shown) VH: QIQLVQSGPELKKPGETVKISCKASGYTFTDYSMHWVKQAPGKGLKWMGWIITETGEPTYADDFRGRFAFSLETSANTAYLQINNLKNEDTATYFCARDFDGYWGQGTTLTVSS VL: DILMTQSPASLSASVGETVTITCRASENIYSYLAWYQQKRGKSPQFLVYNAKTLTEGVPSRFRGSGSGTQFSLKINSLQPEDFGTYYCQHHYGFPWTFGGGTKLEIK | – | – | – | binding result (Human Siglec-9 mutant M6): no binding; EC50 (Human Siglec-9): 0.036 µg/mL |

Continued, in another order:

| binding result [3] | binding result [4] | binding result (Human Siglec-9 mutant M9) | Binder | further results |
| --- | --- | --- | --- | --- |
| no binding | no binding | no binding | mAb3 (antibody, human IgG1, V domains shown) VH: EVQLLETGPGLVKPSQSLSLTCTVTGYSITGGFAWNWIRQFPGNTLEWMGYIGYGGSTSYNPSLNSRISITRDTSKNHFFLQFNSVTTEDSATYYCARGDYLFAYWGQGTLVTVSA VL: DILMTQSPASLSASVGETVSITCRASGNIHNYLAWYLQRQGKSPQLLVYNAKTLADGVPSRFSGTGSGTQFSLKINSLQPEDFGSYYCQHFWSTPRTFGGGTKLEIK | – |
| no binding | no binding | no binding | mAb2 (antibody, human IgG1, V domains shown) VH: EVQLQESGPGLVKPSQSLSLTCTVTGYSITGGFAWNWIRQFPGNTLEWMGYIGYGGSTSYNPSLNSRISITRDTSKNHFFLQFNSVTTEDSATYYCARGDYLFAYWGQGTLVTVSA VL: DIVMTQSHKFMSTSVGDRVSITCKASQDVNTAVAWYQQKPGQSPKLLIYSASYRYTGVPDRFTGSGSGTDFTFTISSVQAEDLAVYYCQQHYSTPRTFGGGTKLEIK | IC50 (read off the curve) (Siglec-9 Fc protein [5]): ~2 µg/mL; IC50 (read off the curve) (Siglec-9 Fc protein [6]): ~1 µg/mL; IC50 (read off the curve) (Siglec-7 Fc protein [7]): ~4 µg/mL |
| no binding | no binding | no binding | mAbF (antibody, human IgG1, V domains shown) VH: QVQLQQSGPEVVRPGVSVKISCKGSGYTFTDYSMHWVKQSHAKSLEWIGVISTYNGNTNYNQKFKGKATMTVDKSSSTAYMELARLTSEDSAIYYCARRGYYGSSSWFGYWGQGTLVTVSA VL: DIVMTQSQKFMSTSVGDRVSVTCKASQNVGTDVAWYQQKPGQSPEALIYSASYRYSGVPDRFTGSGSGADFTLTISNVQSEDLAEYFCQQYNSFPYTFGGGTKLEIK | – |
